The values below come from PMC7225340.

A value given as a limit tells only on which side of the number the result lay.

In the first assay the target is cyno IL21R(1-232)-FLAG-His (cynomolgus monkey). The assay is described as follows: BLI; ForteBio Octet RED384/HTX, 27 C; 10 mM Tris pH 7.5, 150 mM NaCl, 1 mM CaCl2, BSA, 0.13% Triton X-100; biotinylated human or cyno IL21R(1-232)-FLAG-His captured on streptavidin SAX tips to 2.0 nm; samples in 3-fold dilutions, top 300 nM for mutein fusions; association 20 min, dissociation 1.5 h; global 1:1 fit.
As to “recombinant human IL-21 (free wild-type cytokine) (from UniProt Q9HBE4 25-162) (ligand)”, the Kd is 0.044 nM.

The target of a further assay is human IL21R-Fc (bivalent) (human) (UniProt Q9HBE5). The assay can be described thus: BLI; ForteBio Octet RED384/HTX, 27 C; 10 mM Tris pH 7.5, 150 mM NaCl, 1 mM CaCl2, BSA, 0.13% Triton X-100; receptor reagent bivalent IL21R-Fc (how it was held is not told); samples in 3-fold dilutions, top 10 nM for wild-type IL21 fusions, 300 nM for mutein fusions; association 20 min, dissociation 1.5 h; global 1:1 fit. For orientation: BLI is a label-free optical method that tracks binding on a fibre tip over time.
Sequence of UniProt Q9HBE5 (Q9HBE5 20-232): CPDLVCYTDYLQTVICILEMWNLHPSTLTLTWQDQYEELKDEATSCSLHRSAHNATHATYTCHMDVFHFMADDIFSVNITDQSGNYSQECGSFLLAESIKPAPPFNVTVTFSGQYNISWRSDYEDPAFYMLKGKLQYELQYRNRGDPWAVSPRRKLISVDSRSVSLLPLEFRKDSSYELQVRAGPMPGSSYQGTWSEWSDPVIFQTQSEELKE
On to anti-PD-1 mAb x IL-21 I8S, homodimer, for which the Kd came out at 4 nM. Still for that read-out and setting: to anti-PD-1 mAb x IL-21 R5A, homodimer belongs 0.24 nM; to anti-PD-1 mAb x IL-21 Q12E, homodimer, 0.031 nM.

Turning to anti-PD-1 mAb x IL-21 Q12D, homodimer, the Kd was determined as 0.42 nM. Still for that read-out and setting: to anti-PD-1 mAb x IL-21 R76L, homodimer belongs 0.2 nM; to anti-PD-1 mAb x IL-21 R76G, homodimer, 2 nM; to anti-PD-1 mAb x IL-21 R76H, homodimer, 2 nM.

Take anti-PD-1 mAb x IL-21 K73S, homodimer: the Kd worked out at 0.17 nM. Same read-out and setting: the value for anti-PD-1 mAb x IL-21 R76P, homodimer was 0.4 nM. Still for that read-out and setting: the value for anti-PD-1 mAb x IL-21 Q12N, homodimer was 0.38 nM. Still for that read-out and setting: to anti-PD-1 mAb x IL-21 K72P, homodimer belongs 9 nM; to anti-PD-1 mAb x IL-21 K72G, homodimer, 0.25 nM; to anti-PD-1 mAb x IL-21 K73G, homodimer, 0.25 nM.

Regarding anti-PD-1 mAb x IL-21 K75P, homodimer, the Kd was 1 nM. anti-PD-1 mAb x IL-21 K73I, homodimer: the Kd was found to be 0.17 nM. As to anti-PD-1 mAb x IL-21 Q19D, homodimer, the Kd was 0.17 nM. On the same count and under the same terms, the value for anti-PD-1 mAb x IL-21 K73Q, homodimer was 0.069 nM; that for anti-PD-1 mAb x IL-21 R76M, homodimer was 0.6 nM. As for anti-PD-1 mAb x IL-21 R76N, homodimer, the Kd was 15 nM.

With anti-PD-1 mAb x IL-21 Q12A, homodimer, the Kd worked out at 0.23 nM. Same read-out and setting: the value for anti-PD-1 mAb x IL-21 Q12V, homodimer was less than 2.2 nM; that for anti-PD-1 mAb x IL-21 R76K, homodimer was 0.2 nM; that for anti-PD-1 mAb x IL-21 Q12T, homodimer was less than 0.26 nM. In the case of anti-PD-1 mAb x IL-21 R65G, homodimer, the Kd was 0.13 nM.

anti-PD-1 mAb x IL-21 Q12S, homodimer: the Kd came to 0.32 nM. The same measure, in the same setting: to anti-PD-1 mAb x IL-21 L13D, homodimer belongs 11 nM. Still for that read-out and setting: the value for anti-PD-1 mAb x IL-21 K73H, homodimer was 0.19 nM; that for anti-PD-1 mAb x IL-21 K75G, homodimer was 0.16 nM. anti-PD-1 mAb x IL-21 K73E, homodimer registered a Kd of 0.073 nM. Same read-out and setting: to anti-PD-1 mAb x IL-21 K72D, homodimer belongs 0.24 nM. Same read-out and setting: the value for anti-PD-1 mAb x IL-21 R65P, homodimer was 0.9 nM; that for “anti-PD-1 mAb x IL-21 K77G, homodimer (from UniProt Q9HBE4 25-162)” was 0.66 nM.

anti-PD-1 mAb x IL-21 R76D, homodimer returned a Kd of 12 nM. Still for that read-out and setting: to anti-PD-1 mAb x IL-21 R5Q, homodimer belongs 2.1 nM.

Regarding anti-PD-1 mAb x IL-21 P79D, homodimer, the Kd is 0.32 nM. anti-PD-1 mAb x IL-21 K73D, homodimer registered a Kd of 0.44 nM.

anti-PD-1 mAb x IL-21 K73P, homodimer: the Kd came out at 2 nM. The same measure, in the same setting: to anti-PD-1 mAb x IL-21 K73A, homodimer belongs 0.053 nM.
